Reference: US11633499B2, “Anti-TMEM-180 antibody, anticancer drug and cancer testing method” (NATIONAL CANCER CENTER JAPAN, priority 2016, dated 2023)

T1: TMEM-180 (Homo sapiens, UniProt Q14CX5)
T1 construct: endogenous in cells; host or cells: DLD-1 colon cancer cell line (parent / wild type); culture supernatant exosomes in A20
T1 sequence (Q14CX5 1-517): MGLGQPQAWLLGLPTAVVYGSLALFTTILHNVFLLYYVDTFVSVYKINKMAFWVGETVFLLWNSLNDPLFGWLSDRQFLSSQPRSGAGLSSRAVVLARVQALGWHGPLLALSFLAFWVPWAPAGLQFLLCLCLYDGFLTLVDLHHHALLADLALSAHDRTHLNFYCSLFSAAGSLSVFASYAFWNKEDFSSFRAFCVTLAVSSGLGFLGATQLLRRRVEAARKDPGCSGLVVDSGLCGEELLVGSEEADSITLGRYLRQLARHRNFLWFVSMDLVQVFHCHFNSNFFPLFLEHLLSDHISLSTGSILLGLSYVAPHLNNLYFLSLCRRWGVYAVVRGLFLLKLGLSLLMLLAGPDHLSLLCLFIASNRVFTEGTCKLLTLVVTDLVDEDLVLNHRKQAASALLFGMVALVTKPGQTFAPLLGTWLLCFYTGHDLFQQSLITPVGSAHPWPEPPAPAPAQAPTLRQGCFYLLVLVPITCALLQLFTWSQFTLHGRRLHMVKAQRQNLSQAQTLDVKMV

B1: clone 98: rat IgM anti-TMEM-180 monoclonal antibody; heavy chain variable region SEQ ID NO: 13, light chain variable region SEQ ID NO: 14 (antibody, V domains shown)
VH: MAVLVLLLCLVTFPTCVLSQVQLKESGPGLVQPSQTLSLTCTVSGFSLTRYNVHWVRQPTGKGLEWMGVIWTGGSTDYNSALKSRLSISRDTSKSQVFLKMNSLQTEDIATYYCARDLGYWGQGVMVTVSS
VL: MMSPAQFLFLLMLWIQETHSDIVMTQTPLSLSVAIGQSASISCKSSQSLKYRDGKTYLNWVFQSPGQSPKRLIYQVSKLDSGVPDRFSGTGSETDFTLKISRVEAEDLGVYYCCQGSYSPHTFGAGTKLELK
B2: clone 101: rat IgM anti-TMEM-180 monoclonal antibody; variable regions SEQ ID NOs: 15 and 16 (antibody, V domains shown)
VH: MAILVLLLCLVTIPHSVLSQVQLKETGPGLVQPTQTLSITCTVSGFSLTSYYMQWVRQTPGKGLEWMGFIRSGGSTEYNSEFKSRLSISRDTSKNQVFLKMNSLKTEDTGVYYCARAFYGGYYFDYWGQGVMVTVSS
VL: MGIRMESHTRVFIFLLLWLSGADGDIVMTQSPTSISISVGERVTMNCKASQNVGSNVDWYQQKTGQSPKLLIYKASNRYTGVPDRFTGSGSGTDFTFTISNMQAEDLAVYYCMQSNTKYTFGAGTKLELK
B3: clone 212: rat IgM anti-TMEM-180 monoclonal antibody; variable regions SEQ ID NOs: 46 and 47 (antibody, V domains shown)
VH: MDIRLSLAFLVLFIKGVQCEVQLVESGGGLVQPGNSLKLSCAASGFTFSDYAMAWVRQSPKKGLEWVATIIYDGSSTYYRDSVKGRFTISRDNAKSTLYLQMDSLRSEDTATYYCATHWYWYFDFWGPGTMVTVSS
VL: MGVPTQLLGLLLLWITDAICDIQMTQSPASLSASLGETVSIECLASEGISNDLAWYQQKSGKSPQLLIYAASRLQDGVPSRFSGSGSGTRYSLKISGMQPEDEADYFCQQSYKYPLTFGSGTKLEIK
B4: rat-human chimeric antibody clone 98: rat-human chimeric IgG1 antibody carrying clone 98 variable regions (antibody, V domains shown)
VH: QVQLKESGPGLVQPSQTLSLTCTVSGFSLTRYNVHWVRQPTGKGLEWMGVIWTGGSTDYNSALKSRLSISRDTSKSQVFLKMNSLQTEDIATYYCARDLGYWGQGVMVTVSS
VL: DIVMTQTPLSLSVAIGQSASISCKSSQSLKYRDGKTYLNWVFQSPGQSPKRLIYQVSKLDSGVPDRFSGTGSETDFTLKISRVEAEDLGVYYCCQGSYSPHTFGAGTKLELK

How the values were obtained:
colon cancer cell lines = assay: Flow cytometry (FACS) with anti-TMEM-180 IgM clones, colon cancer; type: binding; settings: six types of colon cancers; FIG. 3
Procedure: (§1) Cancer cells targeted for measurement were cultured in medium and then added to a V-bottom 96-well plate (Corning Incorporated) to a concentration of 1×10^5 cells/well. The plate was centrifuged for 3 minutes at 440×g and 4° C. followed by removing the supernatant, adding antibody-producing hybridoma culture supernatant or antibody solution to the cell pellet at 50 μL/well and suspending therein. After allowing to react for 45 minutes on ice, the plate was washed three times with a mixture of 0.1% BSA, 2 mM EDTA and PBS at 200 μL/well. The supernatant was removed and secondary antibody was added to the cell pellet at 50 μL/well followed by suspending the cells therein. ALEXAFLUOR 647@ (fluorescent compound) goat anti-rat IgG (H-L) (Life Technologies Corporation) was used for the secondary antibody after diluting 400-fold with a mixture of 0.1% BSA, 2 mM EDTA and PBS. After allowing to react for 45 minutes on ice, the plate was washed three times with a mixture of 0.1% BSA, 2 mM EDTA and PBS at 200 μL/well. After removing the supernatant, 50 ng/mL of propidium iodide, 0.1% BSA, 2 mM EDTA and PBS were added to the cell pellet at 250 µL/well followed by suspending therein. The cells stained in this manner were measured using a flow cytometer such as the Guava easyCyte 8HT (Merck Millipore Corporation) followed by analysis of the resulting data using FlowJO (Tomy Digital Biology Co., Ltd.). FACS analysis was carried out using colon cancer, brain tumor and hematologic cancer.

brain tumor cell lines = assay: Flow cytometry (FACS) with anti-TMEM-180 IgM clones, brain tumor; type: binding; settings: four types of brain tumors; FIG. 3
Procedure: as §1

DLD-1 colon cancer cells = assay: Fluorescent immunostaining of DLD-1 colon cancer cells; type: binding, human; settings: fixed and permeabilized DLD-1; antibody concentrations of clones not aligned; FIG. 4
Procedure: DLD-1 cells were added to a 96-well plate (Corning Incorporated, CeIIBIND) to a concentration of 5×10^3 cells/well and subjected to cell staining after culturing for 2 days. The cells were subjected to fixation and permeation treatment in the manner indicated below. After washing the cell culturing plate twice with PBS at 200 μL/well, the washings were removed followed by the addition of 4% para-formaldehyde-phosphate buffer (Wako Pure Chemical Industries, Ltd.) containing 0.1% TRITON™ (surfactant) X-100 (Wako Pure Chemical Industries, Ltd.) at 100 µL/well while cooling with ice and fixing the cells for 10 minutes. After removing the fixation solution, the plate was washed once with PBS at 200 μL/well and once with a mixture of 1% FBS in PBS at 200 μL/well to obtain a cell-immobilized plate. The cells were stained in the manner indicated below. Namely, after removing medium from the non-immobilized cell culturing plate and removing washings from the cell-immobilized plate, […] hybridoma culture supernatant or diluted antibody solution was added at 50 μL/well. After allowing to react for 1 hour on ice, the plate was washed once with PBS at 200 μL/well and twice with a mixture of 1% FBS in PBS at 200 μL/well. After removing the washings, a mixture of 5 μg/mL ALEXAFLUOR 647@ (fluorescent compound) goat anti-rat IgG (H-L), 2 μg/mL Hoechst 33342 and 1% FBS/PBS was added at 50 μL/well. After allowing to react for 1 hour on ice, the plate was washed twice with PBS at 200 μL/well. PBS was then added at 50 μL/well followed by measuring with ArrayScan (Thermo Fisher Scientific Inc.).

TMEM-180 = molecular target: T1, TMEM-180; assay: FACS of DLD-1 parent line and TMEM-180 knockout line; type: binding; settings: for FACS shift, TMEM-180 knockout line versus parent line: DLD-1 parent line vs TMEM-180 knockout line, FIG. 5; for specific recognition of TMEM-180: conclusion from DLD-1 parent vs knockout FACS
Procedure: The plate was centrifuged for 3 minutes at 440×g and 4° C. followed by removing the supernatant, adding antibody-producing hybridoma culture supernatant or antibody solution to the cell pellet at 50 μL/well and suspending therein. After allowing to react for 45 minutes on ice, the plate was washed three times with a mixture of 0.1% BSA, 2 mM EDTA and PBS at 200 μL/well. The supernatant was removed and secondary antibody was added to the cell pellet at 50 μL/well followed by suspending the cells therein. […] After allowing to react for 45 minutes on ice, the plate was washed three times with a mixture of 0.1% BSA, 2 mM EDTA and PBS at 200 μL/well. […] The cells stained in this manner were measured using a flow cytometer such as the Guava easyCyte 8HT (Merck Millipore Corporation) followed by analysis of the resulting data using FlowJO (Tomy Digital Biology Co., Ltd.). FACS analysis was carried out using colon cancer, brain tumor and hematologic cancer.
Flow cytometry was carried out in accordance with the procedure described in the above-mentioned section 3. […] The supernatant of a culture of hybridoma producing rat IgM antibody clone 365 was used as a negative control after similarly diluting to 1 μg/mL. […] A mixture of RPMI and 10% FBS was used to dilute each of the antibodies. Furthermore, antibody concentration in the hybridoma culture supernatant was measured by rat IgM-specific ELISA (Bethyl Laboratories).

[1] = test system: human colon cancer formalin-fixed section; assay: Immunostaining of formalin-fixed section of human colon cancer surgical specimens; type: binding; settings: 1 μg/mL, FIG. 6
Procedure: Anti-TMEM-180 IgM rat antibody (clone 98) was reacted with a colon cancer formalin-fixed section at 1 μg/mL. HRP-labeled anti-rat antibody was used as secondary antibody and the section was stained with DAB followed by post-staining with hematoxylin.

colon cancer DLD-1 cells = assay: Cytocidal effect of anti-TMEM-180 IgM antibody (WST-8), DLD-1; type: cell-based, human; settings: hybridoma culture supernatant adjusted to 80, 20 or 5 μg/mL, 96 hours, FIGS. 7 and 8
Procedure: (§2) DLD-1 cells and K562 cells were added to a 96-well plate at 1×10^3 cells/100 μL/well followed by culturing for 24 hours. 50 μL of medium were removed from each well of the 96-well plate followed by the addition of rat IgM antibody clone 98-producing hybridoma culture supernatant or rat IgM antibody clone 101-producing hybridoma culture supernatant, in which antibody concentration had been adjusted to 80 μg/mL, 20 μg/mL or 5 μg/mL, at 50 μL/well. Here, n number in each culture condition was 3, and wells containing medium only were prepared as controls. […] After culturing for 96 hours, WST-8 (Dojindo Laboratories, Cell Counting Kit-8) was added at 10 μL/well followed by measuring absorbance at 450 nm with a microplate reader after culturing for 3 hours. The relative values of absorbance at each antibody concentration were plotted by plotting antibody concentration on the horizontal axis and assigning a value of 1 to the optical absorbance of the well containing medium only. […] Cytocidal effects were also observed for other colon cancer cells Difi, Carl, SW480 and Colo201.

[2] = test system: hematologic tumor K562 cells; assay: Cytocidal effect of anti-TMEM-180 IgM antibody (WST-8), K562; type: cell-based; settings: hybridoma culture supernatant adjusted to 80, 20 or 5 μg/mL, 96 hours, FIGS. 7 and 8
Procedure: as §2

Row | Molecule | FACS reactivity to colon cancers (colon cancer cell lines) | FACS reactivity to brain tumors (brain tumor cell lines) | fluorescent immunostaining (pattern, intensity) (DLD-1 colon cancer cells) | FACS shift, TMEM-180 knockout line versus parent line (TMEM-180) | specific recognition of TMEM-180 (TMEM-180) | staining of colon cancer section ([1]; DAB) | localisation of staining in colon cancer cells [1] | cytocidal effects against DLD-1 cells (colon cancer DLD-1 cells) | cytocidal effects against K562 cells [2]
1 | B1 | positive for all six types of colon cancers | all four types of brain tumors | stained primarily in the membrane | considerable left shift | specifically recognize TMEM-180 | stained specifically | Both the cell membrane and cytoplasm of the colon cancer cells were stained | demonstrated cytocidal effects | did not demonstrate cytocidal effects
2 | B2 | positive for four types of colon cancers | negative for all of the brain tumors | weaker fluorescence intensity than clone 98 and the cytoplasm was also stained |  |  |  |  | demonstrated cytocidal effects | did not demonstrate cytocidal effects
3 | B3 | positive for all six types of colon cancers | positive for only one type of brain tumor | weaker fluorescence intensity than clone 98 and the cytoplasm was also stained |  |  |  |  |  | 
4 | B4 |  |  |  | considerable left shift | specifically recognize TMEM-180 |  |  |  | 
